± gives the standard deviation of the averaged measurements.
Columns and labels:
Saccharomyces cerevisiae [1] = experiment: protein stability index of tFT-peptide fusion (C-terminal peptide) (PSI (0-1 scale)); higher = more stable (slower turnover)
Description: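 MPS profiling in S. cerevisiae of the tFT-X12 degron library: putative degron peptides plus stable controls, 12 aa, fused to the C-terminus of a sfGFP-mCherry timer. Cells are FACS-sorted into 8 mCherry/sfGFP bins and deep-sequenced. PSI runs from 0 (unstable) to 1 (stable). Backgrounds are wild type, das1Δ and doa10Δ at 30 °C, and wild type, das1Δ, cdc34-1 and cdc53-1 at 37 °C; 2-3 technical replicates each.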

Saccharomyces cerevisiae [2] = experiment: as above; conditions: genetic background: wild type; temperature: 30 C
[3] = genetic background: cdc34-1, temperature: 37 C
[4] = genetic background: cdc53-1, temperature: 37 C
[5] = genetic background: das1 deletion, temperature: 30 C
[6] = genetic background: das1 deletion, temperature: 37 C
[7] = genetic background: doa10 deletion, temperature: 30 C
[8] = genetic background: wild type, temperature: 30 C
[9] = genetic background: wild type, temperature: 37 C
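Also: PSI is a weighted mean of sequencing reads over stability bins, variants kept only with over 10 reads, mCherry proximal and sfGFP distal, peptide attached via GGGS linker.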

| Sequence | protein stability index (Saccharomyces cerevisiae [1]; [3]) | protein stability index (Saccharomyces cerevisiae [1]; [4]) | protein stability index (Saccharomyces cerevisiae [1]; [5]) | protein stability index (Saccharomyces cerevisiae [1]; [6]) | protein stability index (Saccharomyces cerevisiae [1]; [7]) | protein stability index (Saccharomyces cerevisiae [1]; [8]) | protein stability index (Saccharomyces cerevisiae [1]; [9]) | protein stability index (Saccharomyces cerevisiae [2]) |
| --- | --- | --- | --- | --- | --- | --- | --- | --- |
| ACACFWVVWVGW | 0.262 ± 0.027 | 0.374 ± 0.021 | 0.248 ± 0.024 | 0.4309 ± 0.0018 | 0.217 ± 0.021 | 0.238 ± 0.035 | 0.402 ± 0.0083 | 0.378 ± 0.03 |
| ACEFRFFYVFRC | 0.304 ± 0.0093 | 0.245 ± 0.016 | 0.31 ± 0.056 | 0.425 ± 0.015 | 0.278 ± 0.0034 | 0.176 ± 0.016 | 0.287 ± 0.034 | 0.315 ± 0.008 |
| AERPVLIIIEFG | 0.416 ± 0.039 | 0.532 ± 0.064 | 0.337 ± 0.031 | 0.5315 ± 0.0052 | 0.296 ± 0.015 | 0.339 ± 0.047 | 0.5248 ± 0.0013 | 0.417 ± 0.027 |
| AFFCTLCLFLVS | 0.44 ± 0.02 | 0.472 ± 0.033 | 0.36 ± 0.036 | 0.496 ± 0.012 | 0.3064 ± 0.002 | 0.323 ± 0.037 | 0.478 ± 0.023 | 0.402 ± 0.014 |
| AFLCVFGFCFFV | 0.423 ± 0.015 | 0.455 ± 0.014 | 0.372 ± 0.035 | 0.482 ± 0.026 | 0.285 ± 0.008 | 0.278 ± 0.019 | 0.407 ± 0.025 | 0.339 ± 0.037 |
| AFRLRHEIISLM | 0.552 ± 0.081 | 0.726 ± 0.024 | 0.63 ± 0.056 | 0.744 ± 0.037 | 0.136 ± 0.0049 | 0.139 ± 0.037 | 0.344 ± 0.041 | 0.282 ± 0.013 |
| AGGLLIGSVGVG | 0.434 ± 0.013 | 0.468 ± 0.0094 | 0.4439 ± 0.0038 | 0.468 ± 0.0066 | 0.4523 ± 0.0042 | 0.4436 ± 0.0017 | 0.4604 ± 0.0028 | 0.45 ± 0.008 |
| AISLPVEVLAFS | 0.4 ± 0.028 | 0.387 ± 0.024 | 0.286 ± 0.051 | 0.438 ± 0.022 | 0.255 ± 0.025 | 0.293 ± 0.01 | 0.439 ± 0.021 | 0.383 ± 0.048 |
| AKVSFYALARQY | 0.665 ± 0.017 | 0.715 ± 0.018 | 0.636 ± 0.018 | 0.726 ± 0.016 | 0.323 ± 0.0065 | 0.355 ± 0.025 | 0.563 ± 0.0078 | 0.414 ± 0.036 |
| ALEFLLLVCRRL | 0.589 ± 0.026 | 0.621 ± 0.024 | 0.457 ± 0.011 | 0.6018 ± 0.0059 | 0.31 ± 0.026 | 0.334 ± 0.028 | 0.517 ± 0.013 | 0.418 ± 0.012 |
| ALFLYNCVVVTD | 0.0493 ± 0.0086 | 0.137 ± 0.018 | 0.146 ± 0.04 | 0.25 ± 0.015 | 0.132 ± 0.011 | 0.143 ± 0.045 | 0.188 ± 0.056 | 0.136 ± 0.0097 |
| ALLYIVVGWSLS | 0.0455 ± 0.011 | 0.185 ± 0.033 | 0.167 ± 0.026 | 0.285 ± 0.025 | 0.12 ± 0.019 | 0.145 ± 0.027 | 0.231 ± 0.0024 | 0.24 ± 0.074 |
| ALRLVAFFWVPG | 0.482 ± 0.063 | 0.536 ± 0.038 | 0.427 ± 0.025 | 0.5392 ± 0.0037 | 0.415 ± 0.035 | 0.4099 ± 0.0011 | 0.5126 ± 0.0048 | 0.422 ± 0.0081 |
| ALTLSYAIKLKV | 0.36 ± 0.02 | 0.395 ± 0.022 | 0.313 ± 0.032 | 0.4594 ± 0.00077 | 0.248 ± 0.0066 | 0.265 ± 0.025 | 0.401 ± 0.027 | 0.372 ± 0.014 |
| AMFQLRLLVGSV | 0.489 ± 0.036 | 0.508 ± 0.018 | 0.386 ± 0.037 | 0.5436 ± 0.0049 | 0.36 ± 0.016 | 0.391 ± 0.0056 | 0.5001 ± 0.0027 | 0.499 ± 0.033 |
| APASFRVLISAF | 0.021 ± 0.0017 | 0.0368 ± 0.0029 | 0.118 ± 0.035 | 0.102 ± 0.013 | 0.0642 ± 0.012 | 0.0969 ± 0.034 | 0.0646 ± 0.018 | 0.136 ± 0.0083 |
| APPRSLSPPLLS | 0.6637 ± 0.0036 | 0.701 ± 0.011 | 0.672 ± 0.022 | 0.71 ± 0.0073 | 0.679 ± 0.0075 | 0.6795 ± 0.0034 | 0.689 ± 0.016 | – |
| ARFFFFCVGILI | 0.379 ± 0.0081 | 0.474 ± 0.067 | 0.339 ± 0.066 | 0.503 ± 0.046 | 0.295 ± 0.035 | 0.354 ± 0.017 | 0.4581 ± 0.0031 | 0.378 ± 0.035 |
| ARKWVAVTVTLW | 0.137 ± 0.038 | 0.232 ± 0.013 | 0.187 ± 0.036 | 0.3519 ± 0.00085 | 0.148 ± 0.021 | 0.189 ± 0.029 | 0.317 ± 0.011 | 0.267 ± 0.043 |
| ARVSLSFVSVSA | 0.4168 ± 0.004 | 0.442 ± 0.012 | 0.279 ± 0.03 | 0.494 ± 0.007 | 0.225 ± 0.0052 | 0.281 ± 0.014 | 0.4672 ± 0.0023 | 0.404 ± 0.015 |

— the supplement of paper PMC10724198
